In a protein production outcome set (Wang et al. 2014):

Assay: label from the status in PepcDB records
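Also: failed if final PepcDB status was selected cloned or expressed and not failed if soluble or beyond.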

## MDIKEIDQSSVITPDGQRISFILITPVNMSVLSDEVVAGRISALANILTSIENLQILCLNASQSYEKNKEHLAAQMKTETNEVLAELDRKDIEYLDDIRISMATGREFAFAVRFKKNIGRPQQEQTLKRLLLILLEAGFTARIAEEQELKGILAIYFAQDIYNDYWPDFDGEEILSPAEAKQEKSFLELIAPSIIDFRRQRYYVCGNTQRTVWAVRGYPTTTKDQTIFRELGEKDGVTLHIYTRPVGSYETNKILERAERRNRHMLNNSSRIKEKVEAESNMQDVQLLIENMHRSKEPFLHCAVFIEMAAGNDKALELLQGDVAAILNRHKILYDKLFLQQKEGMISAMPTGQNLFENQFERVLPASSVANMFPFSYSGKTDPQGMYIGRDANGSNIIVNFDQRGQDKTNGHIIILGNSGEGKSFLLKILSCIFRQSRKNLYILDPENEYKELTEALGGTYMDMMTGKYIINPLEPRLWNQEPVSELESPDTPKAFFKPLRINQHIAFLRDFFSAYKPFPTEQLDTLEIMLELLYKEFHITEETDYSRLRSSDYPILTDLYKLMTRELENYEEKAETGLVVYRKETLRELCLGLHGICTGAESVYFNGYTNIPNAKHIDFGVKDMLSTNQSLSNAMYFNILSFMSHKFLTEGDTNICCDELHELLKNRIAISYLLSFIKRGRKRGSNVILASQNVSDFFLPEIVEYTKPLLSIPTHRFLFYPGSCDTEEYKRVLGVSDSEYRVIQNPNRGHCLYSCGNERYHLHVIAPKYKKALFGTAGGALEHHHHHH
  protein production: failed

## MDIKNSEYRFSPLVIGLHWLTVILIIAVYASMELRGLAPKGALRDAMKSLHYLLGLSVLVIVVIRIGVRIQAGVKPAIQPPMPRWQATLADGMHYALYSFMLAMPLLGWLTLSAAGKPIVLFGLPVPSLIGTDVALSRQLKDVHEALATLGYVLIGLHAMAALLHHYVMRDNTVVRMLPGRRP
  protein production: not failed

## MDIPQAIKYYEQACDLDGDYGCFNAAYFYEYGIGTQKDITQAKTLAKQLREKINLSNINLDKKVSERIIGSVYSNKLEAYRDLSFRPHFIQGLSFYFYAPQSDERKLLSRIGFDSSHLARIAILWAREGDPEVAYQTAKLVSTLYFNNETKTIDIAEALKWLRISAEKGDADSQTLLGFLYEHAGLGLQPDGEKARKWYEMAAQQGNGEALYTLGRMYYSGVLVNVDYDKALYFFKKAYEKKLQEAADYLAQMYFNGQSVDVDCQQSWHYYDNSYIKKMTQRDYLDYCEKDRKRRNDFNQQLPELTLEKYAGLFGRIDNIPLCQIGFVVNTNKLIHVANLRVELILKNDAGVSDERMVAFPPLGLNTLGAEQGMGDSFKSMGYLLMKNGDLCDYHKLTFTVKSATATINGKKVDLLKTDNLHIIQNR
  protein production: failed

## MDIRRIVLYMALALIGLSLWNAWQIDYPAKQPVEEKTASQLTSDGHLLPQIIPSNAEQPVTLKAEEKASSGKQLIQVKTDVLDVDIDLKNGDIVKGLLLDYPLSVEDKNKPFPLLQNQASQRYVANSSLFVLDGQTPQSLDFDFTSEKEYYELKPDQNQLIVTLNGKSEDGLDVKKEFVFTKGSYLIEVNYKIANTGNSLWKGYFNTQLLRSSPKEDKSSIFHIGSYTGASFSNPGKNRYQKVSFSDMSKSNLDVDAKGGWIAMQQHYFLSAWVPNADSENKFYTLATDKDYTIGAVSQPITVKPKEDKIVGSKLYIGPEITSVLKGISPSLDLTVDYGILWFLSSLLFSLMKAIYTVVGNWGWSIVLVTVLIKLAFYRLSATSYKSMASMRKLQPKLQALRERYGDDKAKISQATMELYKQEKVNPLGGCLPILIQIPVFIALYWVLLESVELRQAPFIFWINDLASADPYHVLPLIMGATMLIQQKLNPAPADPMQAKVMMFLPILFTGLFWNFPSGLVLYWIVNNTLSILQQWYITRKYSDEKPAKKVVATAK
  protein production: failed

## MDISGHPKTRTRTIFDEVDEPVWFCCVLPIWVGEEMASGWGITGNKGRCYDFWMDFSECMSHCREPKDCTLLREDYLECLHHSKEFQRRNRIYKEEQRKLRAASRKGEEAGDGTHNHH
  protein production: failed

## MDKAATPWLRYLEELRPHLQGRDHRGRKGSLRWLEALMAERGGRAGTVRNILYKDLGSPEEKERLYRILADLYREAGLKPPPPPAELFLKSARKVLGRDKRRIFRHFLRELEAGRRPQVVVVGGAATGKGVLLSALRQALAAFPGKTPFVLNLGGELAQALIPLAEELGVEAETLLSQLSPTQPYILQGALQQEFLAALAQALNRAGRPLLLRAEAQGTLEGLPLRGPDGGQRGLSAWLEPFLRSLEIPYLAALTEPPPTLPYQPLSPPSREEARRFVRERLPHLPPERLEALVNQAGRNFGELSRLVLLEAAKHDPETPLQDDPALRPLLEALAAFSPEADPAFPAALLERALNRPLERLSQAEKALLEWVGDGLVRPSLRSLLPQEAPRELHRLALEFFPRENLFRRLYHARKAGERRILLDLLTEDPARLALLPGLWQEARSWPKEDREALAAALVRYRAVLGQYAHPEVEEALALLAQAEDPRLRASARIKAAEAKADAGLYKEAEALLPPEEEFPLLDETARAEGLLVRAAVERWKGDYEKAARYAERAAELSVAPFLKDRVQLWRGLVAKDLGRYEEALTALAQVGHDPLLLGRARYQMGDLLMRLGSPEARARMEEGLKALEEAGAPQDEVARVRARYATLLRRLGLYPEAEAAIRRALEEALDPFTRARVESEAGILQAAQGRPLEALALLSRAEAYFRTTGERPKEARYRHLRTLFRLAAAYLLLETGTPYRPPLLGGLKAPEAERLLWDLLAKIPEEATDRYTALRLDAESLLALLLPPKEARERLRPFLGLANPYLRAQARLGYAEALLREGAYGEALAQTVALPPLLDPGLKAQAKATEVLALLALGEEEAAWQKLVEAKQSGLPEPFRLQLGRAVGRAHPGLAARLPPTPLAPPEALGLHLANPD
  protein production: failed

## MDKFSDMTMFVSIVKHQGLAAAGRELGLSPATMTARLQALEERYRVKLLNRSTRHVSLTDAGELYYKASLEILDNVNETENLILNGVKEVKGALRVAAPKDIGKQYILPILSEFCEKYPDVVPYLYLNDDVSNIAESGIDIVVRYGELADSSLISRRLSSSHRVLCASPDYLAKYGTPLTPQDLINHHCLAMVRSHEELKTWHFQGSDKKNVITVLPKRFSDDGEVVRYWALEGAGIALKSILDVQDDINNRRLVTVLNGYMANFNTSTSVSSADLNVVYMSKKYQPKRIRLFLDFLLERFETMKNGGK
  protein production: not failed

## MDKKENTVVLFPQLSERYIDEGFLALKERKFEDALRCFEILRQYNAETEQTELASVICLLELKRMEEAKDKCEQLLKTGVVLFGDILETYVTILVQTNDYEGVIETVEKVLQTKDIMPDQKEKLAQLALFAEGMLNEGDASLVDSNFELDEFTNEIFGENFGQKLRAIQRLSLKDLDLALPVLKKFLIEEEQHPYLKTSILYKMIESQVEEEIEVEKFGNTIKVIPAFTGHNEEQSNNIIHKLSSRLEQNYPDIFEAMVTYWKELQISVFPFALLMDKEEIWSAVLERIGRKRFGLAIDEEELMAAYNIELEEFHIAYQWLLRVEREGYLPV
  protein production: failed

## MDKKKHSLKAPVMTHRAFLALAIPLIFSAMTTPLIGAVDTAIVGHLQDPALIGGVAVGALIFNTMYWLFGFLRVSTSGFSAQALGRKKEDDIMLAFVRPFLLAMFVGLSFILLQHPIKSASLLIISPPEHVGLFAEQYVAIRIWGAPFALISYVVIGWLMGIGRIRGAVTIQIGTNLLNVALDFLFVYWMQWGIGGVAAASLIAEVTGAVAGCLFVLRCYSFSVFSSLTQVLDKRPILHMLTVNRDLFIRTICLLTVLTTFTSIGARFGEVSLAANAILLQLHYLMAYMFDGVANAASIVVGRSVGARDRSLFERVVRLDIVWSSVICLWLVCTLGLMKEPIIALFTSIPAVQAETLQLFGWIMLFPIAGFWGLQLHGMFSGATVARPIRQSMIIAMLVFLISCWLFVPLWGNNGLWLSFIVFTIARSMTLHLSYPALQRLFHDKERSIGA
  protein production: failed

## MDKLKVAELFAGVGGFRLGLENTKEKIFDVTWANQWEPSKKIQHAFDCYNSRFITGEHVNKDIALISDEEIANTKADMVVGGFPCQDYSVARSLSGELGIQGKKGVLFWQIIRFIQNTYPKYLLLENVDRLLKSPSSQRGRDFGVMLSTLNELGYNVEWRVINAADYGNAQRRRRVFIFGYKQDLEHHHHHH
  protein production: not failed

## MDKLKVAELFAGVGGFRLGLENTKEKIFDVTWANQWEPSKKIQHAFDCYNSRFITGEHVNKDIALISDEEIANTKADMVVGGFPCQDYSVARSLSGELGIQGKKGVLFWQIIRFIQNTYPKYLLLENVDRLLKSPSSQRGRDFGVMLSTLNELGYNVEWRVINAADYGNAQRRRRVFIFGYKQDLNYADLIDKYSLEDIVYNSGMFAKAFPIEKEPNKNRVNSSTITNDIVDISNNFSFQFYNSGIMKNGEILTIDTIPIFEKPTPLKEIVLKEVDDKYSLADEKIEKFKYLRGPKKIKRTSKDGHEYYFSEGGMSEFDSLDLPARTMLTSEASVNRSSHFLSIGGKFRTLTPIEAERLNGFPDNWTDTMPDRMRYFCMGNALVVPLVTRIGNQIEKIEKITNDDFSQLKLF
  protein production: failed

## MDKLRVPFHRPYVNLRRCSERLVMHIHILGICGTFMGSLAVLAKESGHRVTGSDANVYPPMSTQLQAQGIELTQGYDPAQLDPAPDLVVVGNALSRGNPAVEYVLNKGLPYVSGPQWLADHVLQDRWVLAVAGTHGKTTTSSMLAWVLEHAGMSPGFLIGGIPQNFAVSARLGDTPFFVVEADEYDSAFFDKRSKFVHYRPRTAILNNLEFDHADIFPDLPAIERQFHHLVRTIPSEGLVIHPTTEPALSRVIEMGCWTPVQTTGDGGQWQARLLSEDGSRFEVLFEGELQGAVEWDMTGQHNVANALATLAAARHVGVVPSLGVQALSAFKSVKRRMEKVAEVRGITIYDDFAHHPTAIATTLDGLRKKIGDAPIIAVIEPRSNSMKLGAHRDGLPESVSQADQVVWYAPPNLGWDLAATVAGGSVPSTVCDSLEAIIARVHSQVQPGTHIVIMSNGGFGGLHGKLAEALK
  protein production: failed

## MDKNIFNILKKYFGYSSFRRGQENIIQSILDGNDTFAIMPTGGGKSICYQVPALYMKGLTIVITPLISLMKDQVDTLRENGVNASYINSTLSSKETNDILMSALSGHLKILYVAPERLEQDYFRNAIKDLTISMVAIDEAHCVSQWGHDFRVSYKRIVPFINIFDKRPIVAAFTATATDEVKKDIINLLELKEPNCFITGFDRDNLFFSIVKNENKFDFITKYLSKHKELSGIIYAATRKEVDSLHQKLISQGYSVGKYHAGMGDKERSESQDLFLYDETKLMIATNAFGMGIDKSNVRFVIHYNMPKNLESYYQEAGRAGRDGEKSECIILFSGQDIQIQKFLIKQSIPSFDRQRIELKKLNDMINYCMTTSCLRKYILNYFGENYEVENCDNCINCTGNVEIVDITLEAQKIISCIYRMGQNFGVTMIAEVLKGSKNSKVLRFNFDKLSTYGIMKDCTLKQITNLINTLIADGYLYLSDSEYATVKMSQKSIEVLKGYKKVVQKIHIVEELSLSTDNTLFEILKALRLEIARRENVPPYIIFSDSVLSEMCKYYPKDKNSMLQIKGVGEIKYNKYGEIFEEKIREYIKETNLTPEDNNKGTLKVPELLSKKIPTHIETFNLYKKGITIADMAKIRNLSIPTIQEHILKCANEGLNVNLDAYIPAEYKDLIYEKIRILGTSKLRPIKDALPDDVDYMAIKAAICKYTSKNKAI
  protein production: failed

## MDKNIWTSRRRRGRSHHRSPALRQCDSSERYTSGASQSSQDSGHHDVECPSTSSSKAGESSVPDLPGFYFDPEKNRYFRLLPGHNNCNPLTKEGIQLKEMESRRLQLLQQEDKQKKKIARVGFNASSILRKNQLGFLNFSSYCRLSHELRVACMERKKVEIQSSDPSALASDRFNFILADTTSDRLFTVNDVKIGGSKYGIISLQGLKAPTFEVHMHENLYFTNRKVNSVCWASLNHLDSHILLCLMGLAETPGCATLLPASLFVSSHQGTDQPGMLCSFRIPGAWSCAWSLNVQANNCFSTGLSRRVLLTNVVTGHRQSYWTNSDVLAQQFAVKTPLLFNGCRSGEIFAIDLRSPSQAKGWKATQIFHDSAVTSVQVFKEEQYLMASDMAGKIKLWDLRATKCVRQYEGHVNEYAYLPLHMHEEEGILVAVGQDCYTRIWSLHDARLLRTIPSPCPTSKANIPSVAFSPRLGGPRGAPGLLMAVQQDLYCFPYSSSCPDGLKEGRWEPSSVSKEDIL
  protein production: failed
